Measurements taken from patent US9260500B2, “Peptide and use thereof” (Takeda Pharmaceutical Company Limited, priority 2009, dated 2016).
Non-standard residues stand in square brackets, D forms with d. *: point of attachment. βHOAla = beta-homoalanine (β-HOAla), D- or L-form; Phe(4-NH2) = Nc1ccc(C[C@H](N)C(=O)O)cc1; β‑HOAla = beta-homoalanine, D or L form; 1Nal = N[C@@H](Cc1cccc2ccccc12)C(=O)O; Arg(Me) = CNC(=N)NCCC[C@H](N)C(=O)O; 4Pal = N[C@@H](Cc1ccncc1)C(=O)O; Cha = N[C@@H](CC1CCCCC1)C(=O)O; αMeP = C[C@@]1(C(=O)O)CCCN1; Nva = CCC[C@H](N)C(=O)O; Dap = NC[C@H](N)C(=O)O; Aib = CC(C)(N)C(=O)O; Bz = O=C(c1ccccc1)*; βAla = NCCC(=O)O

How the values were obtained:
[1] = target: T1, human Y2 receptor (Homo sapiens, UniProt P49146); test: Receptor Binding Assay (RBA) for Human Y2, [125I]-PYY displacement on hY2R/CHO membrane fraction; settings: IC50 of test compound/IC50 of PYY(3-36) (PYY(3-36) taken as 1)
T1 construct: expressed in transfected cells; membrane fraction
T1 sequence (P49146 1-381): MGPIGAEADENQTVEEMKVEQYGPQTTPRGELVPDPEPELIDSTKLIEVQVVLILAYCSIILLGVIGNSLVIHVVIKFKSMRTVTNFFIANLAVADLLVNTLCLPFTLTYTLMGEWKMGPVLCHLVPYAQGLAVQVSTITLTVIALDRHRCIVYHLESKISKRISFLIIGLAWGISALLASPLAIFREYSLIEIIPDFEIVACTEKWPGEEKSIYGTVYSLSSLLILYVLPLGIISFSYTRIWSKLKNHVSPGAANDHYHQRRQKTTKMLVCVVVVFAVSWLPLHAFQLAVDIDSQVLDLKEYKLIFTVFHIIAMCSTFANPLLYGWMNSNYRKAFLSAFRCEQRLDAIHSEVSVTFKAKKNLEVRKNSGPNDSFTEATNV
Summary of the method: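 Read-out is [125I]-PYY displacement from membranes of CHO/dhfr− cells stably transfected with human Y2R. Membranes were obtained by disrupting cells in a buffer of 10 mM NaHCO3, 5 mM EDTA and protease inhibitors.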

[2] = target: T1, human Y2 receptor; test: Human Y2 Receptor G Protein Binding Assay (GBA), [35S]GTPγS; format: biochemical; settings: EC50 of test compound/EC50 of PYY(3-36) (PYY3-36 taken as 1), hY2R/CHO membrane fraction
Summary of the method: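 Agonism measured as [35S]GTPγS binding, read by GF/C filtration and scintillation counting after 120 min at room temperature, using human Y2 membranes at 1 μg protein/mL in pH 7.4 Tris/MgCl2/NaCl/GDP buffer. Compound serially diluted 100 μM–1 nM; EC50 normalized to PYY(3-36) (ratio = compound/PYY).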

| Substance | RBA IC50 Ratio [1] | GBA EC50 Ratio [2] |
| --- | --- | --- |
| Ac-[Thr23, D-Pro24, Pya(4)26, Cha27,36, Aib28,31, Lys30]-PYY(23-36) (Ac-T[dP]R[4Pal][Cha][Aib]NK[Aib]TRQR[Cha]-NH2; SMILES CC(=O)N[C@H](C(=O)N1CCC[C@@H]1C(=O)N[C@@H](CCCNC(=N)N)C(=O)N[C@@H](Cc1ccncc1)C(=O)N[C@@H](CC1CCCCC1)C(=O)NC(C)(C)C(=O)N[C@@H](CC(N)=O)C(=O)N[C@@H](CCCCN)C(=O)NC(C)(C)C(=O)N[C@H](C(=O)N[C@@H](CCCNC(=N)N)C(=O)N[C@@H](CCC(N)=O)C(=O)N[C@@H](CCCNC(=N)N)C(=O)N[C@@H](CC1CCCCC1)C(N)=O)[C@@H](C)O)[C@@H](C)O) [compound No. 211] | 1.1 | 0.69 |
| Ac-[αMePro24, Cha27,28,36, Aib31]-PYY(23-36) (Ac-S[αMeP]RH[Cha][Cha]NL[Aib]TRQR[Cha]-NH2; SMILES CC(=O)N[C@@H](CO)C(=O)N1CCC[C@@]1(C)C(=O)N[C@@H](CCCNC(=N)N)C(=O)N[C@@H](Cc1c[nH]cn1)C(=O)N[C@@H](CC1CCCCC1)C(=O)N[C@@H](CC1CCCCC1)C(=O)N[C@@H](CC(N)=O)C(=O)N[C@@H](CC(C)C)C(=O)NC(C)(C)C(=O)N[C@H](C(=O)N[C@@H](CCCNC(=N)N)C(=O)N[C@@H](CCC(N)=O)C(=O)N[C@@H](CCCNC(=N)N)C(=O)N[C@@H](CC1CCCCC1)C(N)=O)[C@@H](C)O) [compound No. 154] | 2.8 | 1.3 |
| Ac-[β-HOAla24, Pya(4)26, Cha27,36, Aib28,31, Lys30]-PYY(23-36) [compound No. 244] (Ac-S[βHOAla]R[4Pal][Cha][Aib]NK[Aib]TRQR[Cha]-NH2; also: former peak, β-HOAla D/L configuration not assigned) | 2.4 | 2.8 |
| Ac-[β-HOAla24, Pya(4)26, Cha27,36, Aib28,31, Lys30]-PYY(23-36) [compound No. 245] (Ac-S[β‑HOAla]R[4Pal][Cha][Aib]NK[Aib]TRQR[Cha]-NH2; also: β-HOAla at position 2: D or L form not settled) | 0.85 | 1.9 |
| Ac-[βAla24, Pya(4)26, Cha27,36, Aib28,31, Lys30]-PYY(23-36) (Ac-S[βAla]R[4Pal][Cha][Aib]NK[Aib]TRQR[Cha]-NH2; SMILES CC(=O)N[C@@H](CO)C(=O)NCCC(=O)N[C@@H](CCCNC(=N)N)C(=O)N[C@@H](Cc1ccncc1)C(=O)N[C@@H](CC1CCCCC1)C(=O)NC(C)(C)C(=O)N[C@@H](CC(N)=O)C(=O)N[C@@H](CCCCN)C(=O)NC(C)(C)C(=O)N[C@H](C(=O)N[C@@H](CCCNC(=N)N)C(=O)N[C@@H](CCC(N)=O)C(=O)N[C@@H](CCCNC(=N)N)C(=O)N[C@@H](CC1CCCCC1)C(N)=O)[C@@H](C)O) [compound No. 222] | 1.9 | 1.1 |
| Benzoyl-[Asn26, Cha27,28,36, Aib31]-PYY(25-36) (Bz-RN[Cha][Cha]NL[Aib]TRQR[Cha]-NH2; SMILES CC(C)C[C@H](NC(=O)[C@H](CC(N)=O)NC(=O)[C@H](CC1CCCCC1)NC(=O)[C@H](CC1CCCCC1)NC(=O)[C@H](CC(N)=O)NC(=O)[C@H](CCCNC(=N)N)NC(=O)c1ccccc1)C(=O)NC(C)(C)C(=O)N[C@H](C(=O)N[C@@H](CCCNC(=N)N)C(=O)N[C@@H](CCC(N)=O)C(=O)N[C@@H](CCCNC(=N)N)C(=O)N[C@@H](CC1CCCCC1)C(N)=O)[C@@H](C)O) [compound No. 99] | 19 | 21 |
| Benzoyl-[Cha27,28,36, Aib31]-PYY(25-36) (Bz-RH[Cha][Cha]NL[Aib]TRQR[Cha]-NH2; SMILES CC(C)C[C@H](NC(=O)[C@H](CC(N)=O)NC(=O)[C@H](CC1CCCCC1)NC(=O)[C@H](CC1CCCCC1)NC(=O)[C@H](Cc1c[nH]cn1)NC(=O)[C@H](CCCNC(=N)N)NC(=O)c1ccccc1)C(=O)NC(C)(C)C(=O)N[C@H](C(=O)N[C@@H](CCCNC(=N)N)C(=O)N[C@@H](CCC(N)=O)C(=O)N[C@@H](CCCNC(=N)N)C(=O)N[C@@H](CC1CCCCC1)C(N)=O)[C@@H](C)O) [compound No. 64] | 28 | 18 |
| Benzoyl-[Cha27,36, Ile28,31, Phe(4NH2)30]-PYY(25-36) (Bz-RH[Cha]IN[Phe(4-NH2)]ITRQR[Cha]-NH2; SMILES CC[C@H](C)[C@H](NC(=O)[C@H](CC1CCCCC1)NC(=O)[C@H](Cc1c[nH]cn1)NC(=O)[C@H](CCCNC(=N)N)NC(=O)c1ccccc1)C(=O)N[C@@H](CC(N)=O)C(=O)N[C@@H](Cc1ccc(N)cc1)C(=O)N[C@H](C(=O)N[C@H](C(=O)N[C@@H](CCCNC(=N)N)C(=O)N[C@@H](CCC(N)=O)C(=O)N[C@@H](CCCNC(=N)N)C(=O)N[C@@H](CC1CCCCC1)C(N)=O)[C@@H](C)O)[C@@H](C)CC) [compound No. 73] | 12 | 6.6 |
| Benzoyl-[Cha27,36, Ile28, Arg(Me)31]-PYY(25-36) (Bz-RH[Cha]INL[Arg(Me)]TRQR[Cha]-NH2) [compound No. 70] | 18 | 15 |
| Benzoyl-[Cha27,36, Ile28, Dap31]-PYY(25-36) (Bz-RH[Cha]INL[Dap]TRQR[Cha]-NH2; SMILES CC[C@H](C)[C@H](NC(=O)[C@H](CC1CCCCC1)NC(=O)[C@H](Cc1c[nH]cn1)NC(=O)[C@H](CCCNC(=N)N)NC(=O)c1ccccc1)C(=O)N[C@@H](CC(N)=O)C(=O)N[C@@H](CC(C)C)C(=O)N[C@@H](CN)C(=O)N[C@H](C(=O)N[C@@H](CCCNC(=N)N)C(=O)N[C@@H](CCC(N)=O)C(=O)N[C@@H](CCCNC(=N)N)C(=O)N[C@@H](CC1CCCCC1)C(N)=O)[C@@H](C)O) [compound No. 69] | 37 | 28 |
| Benzoyl-[Cha27,36, Ile28, Phe(4NH2)31]-PYY(25-36) (Bz-RH[Cha]INL[Phe(4-NH2)]TRQR[Cha]-NH2; SMILES CC[C@H](C)[C@H](NC(=O)[C@H](CC1CCCCC1)NC(=O)[C@H](Cc1c[nH]cn1)NC(=O)[C@H](CCCNC(=N)N)NC(=O)c1ccccc1)C(=O)N[C@@H](CC(N)=O)C(=O)N[C@@H](CC(C)C)C(=O)N[C@@H](Cc1ccc(N)cc1)C(=O)N[C@H](C(=O)N[C@@H](CCCNC(=N)N)C(=O)N[C@@H](CCC(N)=O)C(=O)N[C@@H](CCCNC(=N)N)C(=O)N[C@@H](CC1CCCCC1)C(N)=O)[C@@H](C)O) [compound No. 72] | 5.0 | 5.4 |
| Benzoyl-[Cha27,36, Ile28, Pya(4)31]-PYY(25-36) (Bz-RH[Cha]INL[4Pal]TRQR[Cha]-NH2; SMILES CC[C@H](C)[C@H](NC(=O)[C@H](CC1CCCCC1)NC(=O)[C@H](Cc1c[nH]cn1)NC(=O)[C@H](CCCNC(=N)N)NC(=O)c1ccccc1)C(=O)N[C@@H](CC(N)=O)C(=O)N[C@@H](CC(C)C)C(=O)N[C@@H](Cc1ccncc1)C(=O)N[C@H](C(=O)N[C@@H](CCCNC(=N)N)C(=O)N[C@@H](CCC(N)=O)C(=O)N[C@@H](CCCNC(=N)N)C(=O)N[C@@H](CC1CCCCC1)C(N)=O)[C@@H](C)O) [compound No. 71] | 7.6 | 8.5 |
| Benzoyl-[Cha27,36, Nal(1)28, Aib31]-PYY(25-36) (Bz-RH[Cha][1Nal]NL[Aib]TRQR[Cha]-NH2; SMILES CC(C)C[C@H](NC(=O)[C@H](CC(N)=O)NC(=O)[C@H](Cc1cccc2ccccc12)NC(=O)[C@H](CC1CCCCC1)NC(=O)[C@H](Cc1c[nH]cn1)NC(=O)[C@H](CCCNC(=N)N)NC(=O)c1ccccc1)C(=O)NC(C)(C)C(=O)N[C@H](C(=O)N[C@@H](CCCNC(=N)N)C(=O)N[C@@H](CCC(N)=O)C(=O)N[C@@H](CCCNC(=N)N)C(=O)N[C@@H](CC1CCCCC1)C(N)=O)[C@@H](C)O) [compound No. 63] | 34 | 25 |
| Benzoyl-[His27, Cha28,36, Aib31]-PYY(25-36) (Bz-RHH[Cha]NL[Aib]TRQR[Cha]-NH2; SMILES CC(C)C[C@H](NC(=O)[C@H](CC(N)=O)NC(=O)[C@H](CC1CCCCC1)NC(=O)[C@H](Cc1c[nH]cn1)NC(=O)[C@H](Cc1c[nH]cn1)NC(=O)[C@H](CCCNC(=N)N)NC(=O)c1ccccc1)C(=O)NC(C)(C)C(=O)N[C@H](C(=O)N[C@@H](CCCNC(=N)N)C(=O)N[C@@H](CCC(N)=O)C(=O)N[C@@H](CCCNC(=N)N)C(=O)N[C@@H](CC1CCCCC1)C(N)=O)[C@@H](C)O) [compound No. 104] | 5.6 | 4.3 |
| Benzoyl-[Nva27, Cha28,36, Aib31]-PYY(25-36) (Bz-RH[Nva][Cha]NL[Aib]TRQR[Cha]-NH2; SMILES CCC[C@H](NC(=O)[C@H](Cc1c[nH]cn1)NC(=O)[C@H](CCCNC(=N)N)NC(=O)c1ccccc1)C(=O)N[C@@H](CC1CCCCC1)C(=O)N[C@@H](CC(N)=O)C(=O)N[C@@H](CC(C)C)C(=O)NC(C)(C)C(=O)N[C@H](C(=O)N[C@@H](CCCNC(=N)N)C(=O)N[C@@H](CCC(N)=O)C(=O)N[C@@H](CCCNC(=N)N)C(=O)N[C@@H](CC1CCCCC1)C(N)=O)[C@@H](C)O) [compound No. 103] | 13 | 8.6 |
